Assay results taken from PMC9150817.
Like-named read-outs stand apart in the source and are kept apart here.

Assays:
[1] = target: T1, Hfq wild type (recombinant, full-length, non-tagged) (Escherichia coli, UniProt P0A6X3 1-102); test: 2D-PAGE/immunoblot of reconstituted complex
[2] = target: T1, Hfq wild type (recombinant, …); test: 2D-PAGE/immunoblot of reconstituted complex; remark: listed apart in the source

T1 sequence (P0A6X3 whole entry): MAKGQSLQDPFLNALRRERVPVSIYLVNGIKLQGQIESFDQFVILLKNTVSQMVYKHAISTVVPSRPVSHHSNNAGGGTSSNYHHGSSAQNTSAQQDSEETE

| Binder | binding result [1] | binding result [2] |
| --- | --- | --- |
| AAAAAAAAAAAAAAAAAAAA (ssRNA) [(rA)20] | binds |  |
| UUUUUUUUUUUUUUUUUUUU (ssRNA) [(U)20] | binds |  |
| AAAAA (ssRNA) [(rA)5] |  | binds |
